These results are taken from publication doi:10.1101/2020.07.15.204859.

This assay has as its target T1, S. Typhimurium 14028S HNS (STM14_2116) (Salmonella enterica serovar Typhimurium 14028S), P0A1S2.
T1 chain: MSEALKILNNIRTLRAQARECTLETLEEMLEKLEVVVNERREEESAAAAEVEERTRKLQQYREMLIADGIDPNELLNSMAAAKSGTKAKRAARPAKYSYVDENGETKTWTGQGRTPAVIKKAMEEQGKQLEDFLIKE
As to the kind of experiment: SEC. Conditions: remark: other sources report otherwise.

B1: S. Typhimurium 14028S HNS (STM14_2116), P0A1S2 1-137 (natural protein)
chain: MSEALKILNNIRTLRAQARECTLETLEEMLEKLEVVVNERREEESAAAAEVEERTRKLQQYREMLIADGIDPNELLNSMAAAKSGTKAKRAARPAKYSYVDENGETKTWTGQGRTPAVIKKAMEEQGKQLEDFLIKE
The term stoichiometry N denotes the number of molecules, sites or subunits per partner or assembly. Regarding B1, the stoichiometry N was found to be 2.
